Source: the supplement of paper PMC6757056
± gives the standard deviation of the averaged measurements.

B1: library; a variant is named by its letters at N, in order (parent)
chain: GCUGUCACCGGUGCUUGGUACGUUAUAUUCAGCCGGUCUGAUGAGUCUNNNNNNAGACGAAACAGC

What was measured:
[1] = variants of: B1; experiment: normalized RNA/DNA level without ligand (relative to sTRSVctl = 100) (log10 (% of sTRSVctl)); HEK293T overexpressing SLC46A1; higher = less ribozyme self-cleavage, higher mRNA level; conditions: without (6R,S)-folinic acid; ligand present: no
Outline: (§1)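 Library plasmids carrying ribozyme switches linked to mCherry, or to eGFP in some ligand experiments, were transfected into HEK293T at 4 µg per 6-well well, with any ligand added 1 h earlier. Seventy-two hours on, total RNA was extracted with EDTA and reverse-transcribed, amplified, barcoded and sequenced. RNA level was RNA over DNA reads normalized to a spiked-in non-cleaving sequence or to the top sequences, then scaled and log-transformed. The top set was 25 sequences, the transform was ×100 and log10, and sequences needed ≥100 DNA reads.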

[2] = variants of: B1; experiment: normalized RNA/DNA level with ligand (relative to sTRSVctl = 100) (log10 (% of sTRSVctl)); HEK293T overexpressing SLC46A1; ligand concentration (+) RNA-Seq: 6 mM; higher = less ribozyme self-cleavage, higher mRNA level; conditions: with (6R,S)-folinic acid; ligand present: yes
Outline: as §1

| Variant | normalized RNA/DNA level without ligand (log10) [1] | normalized RNA/DNA level with ligand (log10) [2] |
| --- | --- | --- |
| AUUAAG | 1.931 ± 0.011 | 2.01 ± 0.026 |
| GUGCAC | 1.935 ± 0.0098 | 2 ± 0.0049 |
| GUGCAG | 1.931 ± 0.0076 | 2.01 ± 0.021 |
| GUGCAA | 1.975 ± 0.0071 | 1.999 ± 0.01 |
| GUGCAU | 1.973 ± 0.0054 | 2.02 ± 0.051 |
| AUUACA | 1.992 ± 0.017 | 2.01 ± 0.059 |
| AUUACU | 2.042 ± 0.012 | 2.04 ± 0.031 |
| AUUACC | 2.019 ± 0.0035 | 2 ± 0.025 |
| AUUACG | 1.941 ± 0.005 | 2.026 ± 0.011 |
| AUGUAA | 1.938 ± 0.011 | 2 ± 0.023 |
| AUGUAU | 1.94 ± 0.025 | 2.03 ± 0.027 |
| AUGUAC | 1.959 ± 0.01 | 1.98 ± 0.025 |
| GUGAGU | 1.96 ± 0.025 | 2.03 ± 0.025 |
| GUGAGC | 1.74 ± 0.024 | 1.962 ± 0.011 |
| AUGCUA | 2.021 ± 0.0056 | 2.01 ± 0.024 |
| AUGCUC | 2.053 ± 0.0063 | 2.03 ± 0.053 |
| AUGCUG | 1.986 ± 0.003 | 2 ± 0.017 |
| AUGCUU | 2.006 ± 0.018 | 2.037 ± 0.014 |
| CUGCCA | 2.05 ± 0.027 | 2.04 ± 0.033 |
| CUGCCG | 2.038 ± 0.012 | 2.075 ± 0.0058 |

| Variant | normalized RNA/DNA level without ligand (log10) [1] | normalized RNA/DNA level with ligand (log10) [2] |
| --- | --- | --- |
| CUGCCU | 2.034 ± 0.011 | 2.003 ± 0.006 |
| GUUAAG | 1.96 ± 0.006 | 2.02 ± 0.027 |
| GUUAAU | 1.9687 ± 4.4e-05 | 2.04 ± 0.026 |
| GUUAAC | 1.976 ± 0.0067 | 2.024 ± 0.015 |
| GUUAAA | 1.991 ± 0.011 | 2 ± 0.039 |
| UUGUAA | 1.943 ± 0.011 | 2.003 ± 0.016 |
| UUGUAC | 1.9902 ± 0.00038 | 2.02 ± 0.045 |
| UUGCUC | 2.046 ± 0.01 | 2.02 ± 0.052 |
| UUGCUU | 2.016 ± 0.013 | 2.04 ± 0.04 |
| UUGCUG | 1.978 ± 0.004 | 2.01 ± 0.05 |
| AUGCGC | 2.017 ± 0.0084 | 2.009 ± 0.018 |
| CUUAAU | 1.989 ± 0.0044 | 2.001 ± 0.011 |
| CUUAAA | 1.9796 ± 8.1e-05 | 1.968 ± 0.017 |
| CUUAAC | 1.9881 ± 0.0006 | 1.983 ± 0.0059 |
| CUUAAG | 1.913 ± 0.0089 | 1.986 ± 0.0033 |
| GUCUUC | 2.073 ± 0.0035 | 2.027 ± 0.0036 |
| GUCUUU | 2.047 ± 0.0022 | 2.04 ± 0.064 |
| GUGUGG | 1.908 ± 0.0095 | 2.03 ± 0.048 |
| AUGCCU | 2.011 ± 0.0046 | 2.015 ± 0.0068 |
| AUGCCA | 2.011 ± 0.0049 | 2.011 ± 0.01 |

| Variant | normalized RNA/DNA level without ligand (log10) [1] | normalized RNA/DNA level with ligand (log10) [2] |
| --- | --- | --- |
| AUGCCC | 2.037 ± 0.016 | 2.02 ± 0.041 |
| AUGCCG | 1.979 ± 0.0032 | 2 ± 0.023 |
| CUGAAG | 1.881 ± 0.0031 | 1.995 ± 0.0079 |
| CUGAAU | 1.96 ± 0.003 | 1.99 ± 0.045 |
| CUGAAC | 1.99 ± 0.035 | 1.99 ± 0.024 |
| AUGAGG | 1.812 ± 0.017 | 2.009 ± 0.013 |
| GUGACG | 1.95 ± 0.017 | 2 ± 0.032 |
| GUGACU | 2.029 ± 0.0025 | 2.04 ± 0.041 |
| AUGGGU | 1.82 ± 0.006 | 1.998 ± 0.0034 |
| AUGGGC | 2.014 ± 0.0055 | 2.03 ± 0.041 |
| UUUAAA | 1.934 ± 0.0037 | 1.97 ± 0.047 |
| UUUAAC | 1.978 ± 0.011 | 1.99 ± 0.028 |
| UUUAAU | 1.975 ± 0.0038 | 1.988 ± 0.014 |
| UUGCAU | 1.975 ± 0.0029 | 2.01 ± 0.043 |
| UUGCAA | 1.96 ± 0.0066 | 1.987 ± 0.0035 |
| UUGCAC | 2.008 ± 0.015 | 2.02 ± 0.026 |
| UUUACA | 2.0168 ± 0.00066 | 2.029 ± 0.0067 |
| UUUACG | 1.859 ± 0.0091 | 1.98 ± 0.03 |
